The source of these data is US20200297842A1 (published 2020).

What is called IC50 is the concentration at which inhibition is half-maximal. A lower IC50 goes with higher potency.

The labels stand for the following.
B1: SIRP3 (antibody, mouse IgG1, kappa, V domains shown)
VH: EVQLQQSGPEVVKPGASVKMSCKASGYTFTSYVMHWVKQKPGQGLEWIGYINPYNDGPKYNEKFKGKATLTSDKSSSTAYMELSSLTSEDSAVYFCARWDYFNSASGFAFWGQGTLVTVSA
VL: EIVLTQSPTTMAASPGEKITIICSASSIIGSDFLHWYQQRPGFSPKFLIYRTSILASGVPTRFTGSGSGTSYSLTIGTMEAEDVATYYCQQGSGLPLTFGSGTKLEMKR
notes: Hybridoma-derived mouse mAb
B2: SIRP2 (antibody, mouse IgG1, kappa, V domains shown)
VH: EVKLVESGGGLVQPGGSLKLSCAASGFSFSGCTMSWIRQTPERRLEWVAYISNGGDITYYPDTVKGRFTISRDNAKNSLYLQMSSLKSEDTAMYYCARLDGYYYAMDFWGQGTSVTVSS
VL: DILLTQSPAILSVSPGERVSFSCRASQSIGTSIHWYQQRTNGSPRLLIKYGSESISGIPSRFSGSGSGTDFTLSINSVESEDIADYYCQQSNTWPLTFGDGTKLELKR
notes: Hybridoma-derived mouse mAb
B3: SIRP7 (antibody, V domains shown)
VH: EVQLQQSGPELVKPGASVKMSCRASGYTFSTYVMHWIKHRPGQGLEWIGYINPNNDGPNYNEKFKGKATLTSDISSSTAYMELSSLTSEDSAVYFCSRWDSYNSAAGFAYWGHGTLVTVSA
VL: EIVLTQSPTTMAASPGEKITIICSASSSISSNFLHWYQQKPGFSPRFLIYRTSILASGVPTRFSGSGSGTSYSLTIDTMEAEDVATYYCQQGSGLPLTFGSGTKLEIK
B4: SIRP5 (antibody, V domains shown)
VH: QVQLQQSAAELARPGASVKMSCKASGYTFTSYTMHWVKQRPGQGLEWIGYINPTIGYTEYNQKFKDKTTLTADKSSSTAYMQLSSLTSEDSAVYYCVRLVITSVLGRAMDYWGQGTSVTVSS
VL: QIVLTQSPALMSASPGEKVTMTCSASSSVSYMYWFQQKPRSSPKPWIYLTSNLASGVPARFSGSGSGTSYSLTISSMEAEDAATYYCQQWSGNPFTFGSGTKLEIK
B5: SIRP22 (antibody, human IgG4 S228P, kappa, V domains shown)
VH: QVQLVQSGAEVKKPGASVKVSCKASGYSFTDYFLNWVRQAPGQGLEWMGRINPYNGDSFINQNFRDRVTMTVDTSTSTVYMELSSLRSEDTAVYYCARGGYDGYFIAYFDYWGAGTTVTVSS
VL: DIQMTQSPSSLSASVGDRVTITCKASQDINSHLSWYQQKPGKAPKLLIYRANRLATGVPSRFSGSGSGTDFTFTISSLQPEDIATYYCQQYDEFPYTFGGGTKLEIKR
B6: SIRP19 (antibody, human IgG4 S228P, kappa, V domains shown)
VH: EVQLVQSGAEVKKPGESLKISCKGSGYSFTDYFLNWVRQMPGKGLEWMGRINPYNGDSFINQNFRDQVTISADKSISTAYLQWSSLKASDTAMYYCARGGYDGYFIAYFDYWGAGTTVTVSS
VL: B5 VL
B7: SIRP8 (antibody, V domains shown)
VH: EVQLQESGGGLVKPGGSLKLSCAASGFTLSTYTMSWVRQTPEKRLEWVAIITSGDTYTYYPDSVKGRFTISRDNAKNTLYLQMSSLKSEDTGMYYCTRDRPLFHWGQGTTLTVST
VL: QIVLTQSPAIMSASPGEKVTMTCSASSSVSYMYWYQQKPGSSPRLLIYDTSNLASGVPVRFSGSGSGTSYSLTISRMEAEDAATYYCQQWSSFPWTFGGGTKLEIK
B8: OSE-18D5 (antibody, from another filing, V domains shown)
VH: QVQLQQPGAELVRPGSSVKLSCKASGYTFTSYWVHWVKQRPIQGLEWIGNIDPSDSDTHYNQKFKDKASLTVDKSSSTAYMQLSSLTFEDSAVYYCVRGGTGTMAWFAYWGQGTLVTVSA
VL: DVVMTQTPLSLPVSLGDQASISCRSSQSLVHSYGNTYLYWYLQKPGQSPKLLIYRVSNRFSGVPDRFSGSGSGTDFTLKISRVEAEDLGVYFCFQGTHVPYTFGSGTKLEIK

HIS tagged human SIRPα (ACRO # SIG-H5225) (human), sequence (P78324 31-370): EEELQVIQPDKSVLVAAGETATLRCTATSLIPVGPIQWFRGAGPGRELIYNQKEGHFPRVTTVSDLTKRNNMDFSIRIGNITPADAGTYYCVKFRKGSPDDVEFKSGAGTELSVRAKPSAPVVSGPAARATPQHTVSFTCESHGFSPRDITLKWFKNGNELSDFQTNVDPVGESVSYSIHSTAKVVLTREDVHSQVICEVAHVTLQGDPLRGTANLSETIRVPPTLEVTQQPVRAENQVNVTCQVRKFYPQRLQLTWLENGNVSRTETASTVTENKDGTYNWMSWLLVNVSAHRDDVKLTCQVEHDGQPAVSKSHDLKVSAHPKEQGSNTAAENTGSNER
T3 sequence (P78324 31-370 limits assumed, change not shown, form in doubt): as the sequence (P78324 31-370) above
T4 sequence (Q9P1W8 29-387): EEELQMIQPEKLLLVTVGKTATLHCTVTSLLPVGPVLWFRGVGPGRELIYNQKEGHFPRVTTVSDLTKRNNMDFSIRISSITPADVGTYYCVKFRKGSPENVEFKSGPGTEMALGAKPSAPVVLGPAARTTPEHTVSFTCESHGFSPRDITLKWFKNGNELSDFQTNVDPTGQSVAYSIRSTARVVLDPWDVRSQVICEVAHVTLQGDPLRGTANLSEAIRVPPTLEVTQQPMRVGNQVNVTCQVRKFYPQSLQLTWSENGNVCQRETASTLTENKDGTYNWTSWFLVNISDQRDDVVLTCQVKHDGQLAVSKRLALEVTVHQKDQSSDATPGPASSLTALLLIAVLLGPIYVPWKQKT

One assay deals with T1, Fc tagged human SIRPγ (ACRO # SIG-H5253) (human, UniProt Q9P1W8 29-360).
T1 construct: Bought protein; it includes the transmembrane and cytoplasmic part, which a soluble Fc fusion would not carry; also called Fc tagged human SIRP gamma; recombinant human SIRP gamma; not shown: Fc tag
T1 sequence (Q9P1W8 29-360 limits assumed): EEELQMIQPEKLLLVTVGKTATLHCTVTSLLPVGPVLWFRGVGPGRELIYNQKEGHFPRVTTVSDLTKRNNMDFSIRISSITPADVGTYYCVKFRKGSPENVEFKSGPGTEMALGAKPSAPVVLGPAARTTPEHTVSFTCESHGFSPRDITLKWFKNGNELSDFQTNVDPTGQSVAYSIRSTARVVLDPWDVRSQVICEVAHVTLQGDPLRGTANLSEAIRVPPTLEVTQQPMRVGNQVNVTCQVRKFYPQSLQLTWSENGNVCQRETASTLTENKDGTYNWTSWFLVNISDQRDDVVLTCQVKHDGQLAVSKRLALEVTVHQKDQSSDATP
The assay is described as follows: ELISA, plate-coated Fc tagged human SIRPγ; apparent Kd. The method, then:
The binding of anti-SIRP antibodies of the present disclosure to SIRP gamma (SIRPγ) was determined by ELISA using an Fc tagged human SIRPγ. Binding by soluble anti-SIRP antibodies was measured in vitro.
(§1) Fc tagged human SIRPγ (ACRO # SIG-H5253) is adsorbed to high-binding microtiter plates at a concentration of 1 μg/ml in phosphate buffered saline (PBS) overnight at 4° C. The coating solution is removed, the wells are washed and then blocked with 75% casein in PBS containing 0.5% Tween 20 (PBST) for 60 minutes at room temperature while shaking. Blocking solution is removed, the wells are washed and incubated for 60 minutes at room temperature while shaking with anti-SIRP mAbs diluted in PBST at a starting concentration of 30 μg/ml and reducing the concentration in 3-fold serial dilutions. Wells are washed three times with PBST and incubated for 60 minutes at room temperature while shaking with an HRP labeled donkey anti-mouse or anti-human secondary antibody (Jackson ImmonResearch Laboratories) diluted 1:10,000 in PBST. The wells are washed and then incubated with peroxidase substrate and the absorbance at 450 nm determined. The apparent affinities were calculated using a non-linear fit model (GraphPad Prism).
B1: the Kd was 0.17 nM.

On to B2, for which the Kd worked out at 0.734 nM.

For the molecule B3, the Kd stood at 0.099 nM.

For the molecule B4, the Kd came to 0.126 nM.

For another assay, the target named is T1, Fc tagged human SIRPγ (ACRO # SIG-H5253). The assay is described as follows: blocking ELISA: mAb with human SIRPγ (ACRO # SIG-H5253) on plate-coated HIS tagged human CD47. The method, then:
HIS tagged human CD47 (ACRO # CD7-H5227) is adsorbed to high-binding microtiter plates at a concentration of 2 μg/ml diluted in PBS overnight at 4° C. The coating solution is removed, the wells are washed and then blocked with 75% casein in PBS containing 0.5% Tween 20 (PBST) for 60 minutes at room temperature while shaking. Blocking solution is removed, the wells are washed and incubated for 60 minutes at room temperature while shaking with anti-SIRP mAbs diluted in PBST at a starting concentration of 30 μg/ml and reducing the concentration in 3 fold serial dilutions and 0.5 μg/ml of human SIRPγ (ACRO # SIG-H5253). Wells are washed three times with PBST and incubated for 60 minutes at room temperature while shaking with an HRP labeled donkey anti-mouse or anti-human secondary antibody (Jackson ImmunoResearch Laboratories) diluted 1:20,000 in PBST. The wells are washed and then incubated with peroxidase substrate and the absorbance at 450 nm determined. The IC₅₀ was calculated using a non-linear fit model (GraphPad Prism).
(In general: ELISA stands for enzyme-linked immunosorbent assay.)
B1 gave an IC50 of 0.96 nM.

For B2, inhibition was half-maximal at 3.5 nM (IC50).

For the molecule B3, the half-inhibitory concentration (IC50) is 0.63 nM.

B4 displayed an IC50 of 0.163 nM.

Another assay concerns the target HIS tagged human SIRPα (ACRO # SIG-H5225) (human) (UniProt P78324). The assay is described as follows: blocking ELISA: mAb on plate-coated HIS tagged human SIRPα, then Fc tagged human CD47.
In the case of B1, the IC50 worked out at 2.7 nM.

B2 displayed an IC50 of 3 nM.

For the molecule B3, the 50% inhibitory concentration (IC50) came out at 1.1 nM. This IC50 lies about 2.7-fold lower than the previous one.

In a further assay the target is T1, Fc tagged human SIRPγ (ACRO # SIG-H5253). Briefly: ELISA, plate-coated Fc tagged human SIRPγ. The method, then: as §1
As to B5, the binding result is given as “no binding (tested: 30 µg/ml)”.

For B6, the binding result was “no binding (tested: 30 µg/ml)”.

In the case of B7, the binding result was “no binding (tested: 30 µg/ml)”.

For a further assay, the target named is T2, human SIRPα expressed on cells (human, UniProt P78324 31-504).
T2 construct: whole, on cells; Endogenous SIRPα of THP-1 cells and of donor-derived macrophages and dendritic cells; also called SIRPα expressing THP-1 cells; cell-expressed SIRPα on dendritic cells and/or macrophages
T2 sequence (P78324 31-504): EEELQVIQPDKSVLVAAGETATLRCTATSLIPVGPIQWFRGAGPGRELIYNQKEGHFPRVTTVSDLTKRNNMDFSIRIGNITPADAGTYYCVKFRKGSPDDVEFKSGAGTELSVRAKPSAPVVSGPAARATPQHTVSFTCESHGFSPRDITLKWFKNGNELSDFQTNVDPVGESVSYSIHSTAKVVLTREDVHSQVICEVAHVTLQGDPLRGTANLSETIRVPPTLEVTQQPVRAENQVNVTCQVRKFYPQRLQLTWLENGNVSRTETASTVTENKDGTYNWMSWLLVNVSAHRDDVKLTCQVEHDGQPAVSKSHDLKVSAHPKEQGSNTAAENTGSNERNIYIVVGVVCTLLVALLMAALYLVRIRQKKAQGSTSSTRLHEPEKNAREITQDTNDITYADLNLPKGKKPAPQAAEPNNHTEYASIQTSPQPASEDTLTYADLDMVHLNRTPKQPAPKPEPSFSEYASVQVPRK
Briefly: flow cytometry on human monocyte-derived dendritic cells; apparent Kd. The method, then:
(§2) Human CD14⁺ monocytes, isolated from peripheral blood mononuclear cells (Astarte Biologics) were differentiated in vitro for seven days into macrophages or dendritic cells. For macrophage differentiation, monocytes were incubated in AIM-V media (Life Technologies) supplemented with 50 ng/ml M-CSF (Biolegend) for seven days. For dendritic cell differentiation, monocytes were incubated in AIM-V media (Life Technologies) in the presence of 10% human AB serum (Valley Biomedical), 200 ng/ml GM-CSF (Biolegend) and 50 ng/ml IL-4 (Biolegend). The cells were incubated for 1 h at 37° C., 5% CO₂ with serial dilutions of SIRP mAbs in binding buffer containing 1 mM EDTA (Sigma Aldrich) and 1% FBS (Biowest) in PBS (Corning). The cells were then washed and stained for 45 min under the same conditions with donkey anti-mouse IgG fluorescein isothiocyanate (FITC)-linked secondary antibody (Jackson ImmunoResearch Laboratories). The cells were subsequently stained with anti-CD14 or anti-CD11c conjugated to Alexa Fluor 647 fluorophore (Life Technologies and Biolegend, respectively) for 30 min on ice, washed and analyzed by flow cytometry (Attune, Life Technologies). Binding was assessed as the median FITC fluorescence intensity of CD14⁺ or CD11c⁺ cells, subtracted from cells stained with the secondary antibody only.
On the technique in general: In flow cytometry, cells or beads pass a laser one at a time.
Take B1: the Kd worked out at 0.00347 nM.

As to B8, the Kd was found to be 0.0412 nM.

B4: the Kd is 0.77 nM.

A further assay addresses T3, Fc tagged human SIRPα (ACRO # SIG-H5251, genotype variant 1) (human, UniProt P78324 31-370, limits assumed).
T3 construct: Bought protein; also called Fc tagged human SIRP alpha; recombinant human SIRPα; not shown: Fc tag
The assay is described as follows: ELISA, plate-coated Fc tagged human SIRPα; apparent Kd. The method, then: The binding of anti-SIRP monoclonal antibodies (mAbs) of the present disclosure to SIRP alpha (SIRPα) was determined by solid phase ELISA using an Fc tagged human SIRP alpha. Binding by soluble anti-SIRP antibodies was measured in vitro.
Fc tagged human SIRPα (ACRO # SIG-H5251, genotype variant 1) is adsorbed to high-binding microtiter plates at a concentration of 1 μg/ml diluted in phosphate buffered saline (PBS) overnight at 4° C. The coating solution is removed, the wells are washed and then blocked with 75% casein in PBS containing 0.5% Tween 20 (PBST) for 60 minutes at room temperature while shaking. Blocking solution is removed, the wells are washed and incubated for 60 minutes at room temperature while shaking with either murine or human anti-SIRP mAbs diluted in PBST at a starting concentration of 30 μg/ml and reducing the concentration in 3-fold serial dilutions. Wells are washed three times with PBST and incubated for 60 minutes at room temperature while shaking with an HRP-labeled donkey anti-mouse or anti-human secondary antibody (Jackson ImmunoResearch Laboratories) diluted 1:10,000 in PBST. The wells are washed and then incubated with peroxidase substrate and the absorbance at 450 nm measured. The apparent affinities were calculated using a non-linear fit model (GraphPad Prism).
Regarding B1, the Kd worked out at 0.289 nM.

On to B2, for which the Kd amounted to 0.182 nM.

For B5, the Kd is over 11 nM.

For the molecule B6, the Kd is over 19 nM.

On to B7, for which the Kd was 0.057 nM.

B3: the Kd was found to be 0.197 nM.

Take B4: the Kd amounted to 0.065 nM.

A further assay deals with T2, human SIRPα expressed on cells. Briefly: flow cytometry on human monocyte-derived macrophages; apparent Kd. The method, then: as §2
With B8, the Kd was 0.0373 nM.

The next assay has as its target T4, human SIRPγ expressed on cells (human, UniProt Q9P1W8 29-387).
T4 construct: Endogenous SIRPγ on Jurkat T-ALL cells and on human CD3+ T cells; also called SIRPγ expressing Jurkat cells; Human T Cells Expressing SIRPγ
Briefly: flow cytometry on naive human CD3 T cells expressing SIRPγ. The method, then:
Human CD3 T cells, isolated from peripheral blood mononuclear cells (Astarte Biologics) were incubated in 96-well V-bottom plates at 2.5 \ 10⁵ cells/well for 1 h at 37° C., 5% CO₂ with serial dilutions of SIRP mAbs in binding buffer containing 1 mM EDTA (Sigma Aldrich), 1% FBS (Biowest) in PBS (Corning). The cells were then washed and stained for 45 min under the same conditions with donkey anti-mouse IgG fluorescein isothiocyanate (FITC)-linked secondary antibody (Jackson ImmunoResearch Laboratories). The cells were subsequently stained with anti-CD3 conjugated to 3-carboxy-6,8-difluoro-7-hydroxycoumarin (Pacific Blue) fluorophore (BioLegend) for 30 min on ice, washed and analyzed by flow cytometry (Attune, Life Technologies). Binding was assessed as the median FITC fluorescence intensity of CD3⁺ cells, subtracted from CD3⁺ cells stained with the secondary antibody only. All SIRP antibodies were generated in-house except for LSB2.20 (BioLegend). For activated T cells, prior to the binding assay CD3 T cells were activated for 72 h in a 96-well flat-bottom plate coated with 10 μg/ml anti-CD3 (clone UCHT1; BioLegend), at 1×10⁵ cells/well in the presence of 0.5 μg/ml anti-CD28 (clone CD28.2; BioLegend).
Turning to B1, the Kd was 0.0807 nM.

Regarding B3, the Kd was 0.0839 nM.

As for B8, the Kd was found to be 8.41 nM.
